Test results published in patent US20060039918A1 (University of California, published 2006).
[ ]: non-standard residue; d: D form. The star is where a group is joined. Biotin = O=C1N[C@H]2[C@H](CS[C@H]2CCCCC(=O)*)N1; code J = not defined here

Biological target: T1, HLA DRB1*0401 molecules (biotinylated recombinant HLA-DR4) (human)
T1 construct: Recombinant and biotinylated; also called biotinylated recombinant MHC
Test: loading of biotinylated recombinant HLA-DR4 with peptide for aAPCs and tetramers

Binder	binding result
Biotin-[code U]A[code J]AAAATLKAA-NH2 (reading uncertain, Synthetic control peptide used to set the background in the T cell capture assay; also called negative control PADRE (-)) [PADRE (-) peptide (UAJAAAATLKAA)]	binds
Biotin-QKRAAYDQYGHAAFE-NH2 (SMILES C[C@H](NC(=O)[C@H](C)NC(=O)[C@H](Cc1c[nH]cn1)NC(=O)CNC(=O)[C@H](Cc1ccc(O)cc1)NC(=O)[C@H](CCC(N)=O)NC(=O)[C@H](CC(=O)O)NC(=O)[C@H](Cc1ccc(O)cc1)NC(=O)[C@H](C)NC(=O)[C@H](C)NC(=O)[C@H](CCCNC(=N)N)NC(=O)[C@H](CCCCN)NC(=O)[C@H](CCC(N)=O)NC(=O)CCCC[C@@H]1SC[C@@H]2NC(=O)N[C@@H]21)C(=O)N[C@@H](Cc1ccccc1)C(=O)N[C@@H](CCC(=O)O)C(N)=O, Synthetic peptide) [dnaJP1 peptide (QKRAAYDQYGHAAFE)]	binds
